Assay results taken from patent US20200392528A1, “IMPROVED PLANT EPSP SYNTHASES AND METHODS OF USE” (PIONEER HI-BRED INTERNATIONAL, INC., priority 2017, published 2020).
Where two headings read alike, the source gives them in different places.

Key:
CP4 EPSPS = CP4 EPSPS (Agrobacterium sp., UniProt Q9R4E4); test: substrate saturation kinetic analysis (kcat, Km, Ki); format: biochemical, Agrobacterium sp. strain CP4
Protocol: (§1) EPSPS activity was determined by quantifying the phosphate generated from the EPSPS reaction. Release of inorganic phosphate was coupled to its reaction with 2-amino-6-mercapto-7-methylpurine ribonucleoside (MESG), catalyzed by purine nucleoside phosphorylase, according to previously described protocols. To determine the kcat gly, enzyme preparations were normalized to 0.1 mg/ml and four- to six-microliter aliquots of normalized enzyme were added to the wells of a low UV-absorbing 96-well assay plate (Greiner UV-Star). Reactions were started with the addition of 2×147 μl of reaction mixture containing 25 mM Hepes, pH 7.0, 100 mM KCl, 5% ethylene glycol, 30 μM each of PEP and S3P, 0.15 mM MESG, 1.5 U/ml purine nucleoside phosphorylase (Sigma N8264) and 1 mM glyphosate. Absorbance was monitored at 4 sec intervals for 50 sec with a Spectramax plate reader (Molecular Devices). […] Division by the enzyme concentration (0.04 to 0.1 uM, depending on activity) yields “kcat gly” in units of min^−1.
Combinatorial shuffling, maize native EPSPS—The mutations discovered were used to construct a combinatorial library designed to explore combinations of the desensitizing mutations in novel sequence contexts provided by the newly identified neutral mutations. Note that the amino acid position numbering in this Example 10 refers to the relative position of native maize EPSPS without the N-terminal Met. Therefore, G101A in this Example would be G102A in reference to SEQ ID NO: 1, wherein the maize EPSPS sequence has a Met added at the N-terminal. The diversity used was the same with the addition of G101A, T102 (IALGV) and P106(WA). In all, 43 substitutions at 29 positions were selected. The library was synthesized entirely from oligonucleotides, using the known technique of synthetic shuffling and was termed NatFS (Native, fully synthetic). The vector DNA of the library was transformed into the BL21(DE3) Tuner-AroA knockout strain and the cells were plated onto M9 medium containing either 30 mM glyphosate and 30 μM of the lac operon inducer isopropyl β-D-1-thiogalactopyranoside (IPTG) or 50 mM glyphosate and no IPTG. The 184 colonies that grew on either plate were picked and subjected to a second tier of screening in which EPSPS proteins were purified and activity measured at high (200 μM) and low (50 μM) PEP and S3P, with or without 10 μM glyphosate. Selected variants were subjected to substrate saturation kinetic analysis.

[1] = target: EPSPS from Agrobacterium sp. strain CP4 (Agrobacterium sp., UniProt Q9R4E4); test: kgly: enzyme turnover at 30 μM PEP and S3P, 1 mM glyphosate, CP4 EPSPS; format: biochemical
From the text: A customized parameter for predicting performance in the treated plant that would be a more accurate representation than kcat/Km*Ki. […] However, kcat/Km*Ki may be inadequate for predicting the reaction velocity under the conditions of the application (plants sprayed with glyphosate) because it may neglect concentrations of substrate and inhibitor, factors that are not intrinsic to the enzyme, but on which the reaction rate depends. Therefore, libraries derived from C1 on in FIG. 2 were evaluated with a single rate measurement designed to take all factors in the rate equation for competitive inhibition into account. […] Glyphosate was included at 1 mM, a concentration attainable in tissues, especially meristems, receiving metabolite flow from treated leaves. The pH (7.0), ionic strength (100 mM KCl) and co-solvent concentration (5% ethylene glycol) were also intended to mimic in vivo conditions. The unit for the parameter is reaction rate (μM·min^−1) per enzyme concentration (μM), or min^−1, describing the enzyme turnover under application conditions, which we abbreviate as “kgly”. Although individual kinetic parameters for key variants were obtained, kgly was adopted a parameter needed both for medium throughput screening and for ultimate evaluation of fitness.

soybean EPSPS = test: kcat gly: enzyme turnover under application conditions, soybean variants; format: biochemical; settings: for kcat gly: soybean variants
Protocol: (§2) A more straight-forward, accurate and meaningful parameter is one in which one rate measurement is performed under presumed in vivo conditions, if known. To establish a set of conditions that mimic those under which the mutated enzyme needs to perform, the concentrations of PEP and S3P were set low (30 uM, subject to the sensitivity of assay conditions) to approach the presumed intracellular concentrations (˜15 uM, the approximate values of KM for both PEP and S3P). Glyphosate is included at 1 mM. The pH is set at 7.0 and ionic strength at 100 mM KCl, also to mimic known in vivo conditions. Ethylene glycol is present at 5% (v/v) to approximate the dielectric constant of intracellular fluid. The parameter is termed “enzyme turnover under application conditions”, which is herein shortened to “kcat gly”. The conventional formatting of the expression “kcat” is not used, to avoid this term being characterized as a standard kinetic constant.
EPSPS activity was determined by quantifying the phosphate generated from the EPSPS reaction. Release of inorganic phosphate was coupled to its reaction with 2-amino-6-mercapto-7-methylpurine ribonucleoside (MESG), catalyzed by purine nucleoside phosphorylase, according to previously described protocols. To determine the kcat gly, enzyme preparations were normalized to 0.1 mg/ml and four- to six-microliter aliquots of normalized enzyme were added to the wells of a low UV-absorbing 96-well assay plate (Greiner UV-Star). Reactions were started with the addition of 2×147 μl of reaction mixture containing 25 mM Hepes, pH 7.0, 100 mM KCl, 5% ethylene glycol, 30 μM each of PEP and S3P, 0.15 mM MESG, 1.5 U/ml purine nucleoside phosphorylase (Sigma N8264) and 1 mM glyphosate. Absorbance was monitored at 4 sec intervals for 50 sec with a Spectramax plate reader (Molecular Devices). […] Division by the enzyme concentration (0.04 to 0.1 uM, depending on activity) yields “kcat gly” in units of min^−1. […]
A library was constructed and screened as above. […] The library was constructed, screened and evaluated by the methods described in Examples 1 and 2.

rice EPSPS = test: kcat gly: enzyme turnover under application conditions, rice orthologs; format: biochemical, rice (Oryza sativa); settings: Table 5
Protocol: as §2, §1
Only variable positions are shown. Naturally occurring differences in the rice sequence from the maize sequence are shown. The mutations designed to create rice orthologs of selected maize variants are shown. Genes designed to encode the rice orthologs were synthesized by a commercial provider and expressed and purified as described above.
Fitness is indicated by the parameter kcat gly, defined in Example 1.

B1: CP4 EPSPS: Class II EPSPS from Agrobacterium sp. strain CP4 (protein, UniProt Q9R4E4 1-455, looked up)
3-phosphoshikimate …: MSHGASSRPATARKSSGLSGTVRIPGDKSISHRSFMFGGLASGETRITGLLEGEDVINTGKAMQAMGARIRKEGDTWIIDGVGNGGLLAPEAPLDFGNAATGCRLTMGLVGVYDFDSTFIGDASLTKRPMGRVLNPLREMGVQVKSEDGDRLPVTLRGPKTPTPITYRVPMASAQVKSAVLLAGLNTPGITTVIEPIMTRDHTEKMLQGFGANLTVETDADGVRTIRLEGRGKLTGQVIDVPGDPSSTAFPLVAALLVPGSDVTILNVLMNPTRTGLILTLQEMGADIEVINPRLAGGEDVADLRVRSSTLKGVTVPEDRAPSMIDEYPILAVAAAFAEGATVMNGLEELRVKESDRLSAVANGLKLNGVDCDEGETSLVVRGRPDGKGLGNASGAAVATHLDHRIAMSFLVMGLVSENPVTVDDATMIATSFPEFMDLMAGLGAKIELSDTKAA
Molecule B1 has a kcat (CP4 EPSPS; CP4 EPSPS) of 6.85 ± 0.083 s⁻¹, a Ki (CP4 EPSPS; Ki for glyphosate) of 1970 ± 276 µM and a Km (CP4 EPSPS; apparent Km, PEP present at 10 times its Km, read-out: Km S3P) of 5.2 ± 0.5 µM. The Km (CP4 EPSPS; apparent Km, S3P present at 10 times its Km, read-out: Km PEP) was 15.5 ± 0.4 µM, the “kcat/Km*Ki” value (CP4 EPSPS; calculated with Km for PEP) was 52240 and the Km (CP4 EPSPS; read-out: Km for PEP) was 15.5 µM. For the same molecule, the kgly [1] was 176 ± 1.6 min⁻¹.

B2: Gm F3: soybean EPSPS variant from combinatorial library, SEQ ID NO: 13 (protein)
chain: MAAAEKPSTSPEIVLEPIKDFSGTITLPGSKSLSNRILLLAALSEGTTVVDNLLYSEDIHYMLGALRTLGLRVEDDKTTKQAIVEGCGGLFPTSKESKDEINLFCGNAATAMRPLTAAVVAAGGNASYVLDGVPRMRERPIGDLVAGLKQLGADVDCFLGTNCPPVRVNGKGGLPGGKVKLSGSVSSQYLTALLMAAPLALGDVEIEIVDKLISVPYVEMTLKLMERFGVSVEHSGNWDRFLVHGGQKYKSPGNAFVEGDASSASYLLAGAAITGGTITVNGCGTSSLQGDVKFAEVLEKMGAKVTWSENSVTVSGPPRDFSGRKVLRGIDVNMNKMPDVAMTLAVVALFANGPTAIRDVASWRVKESERMIAICTELRKLGATVEEGPDYCVITPPEKLNVTAIDTYGDHRMAMAFSLAACGDVPVTIKDPGCTRKTFPDYFEVLERLTKH
modifications: Glycine max
B2 was tested, and the kcat gly (soybean EPSPS) was 0.938 s⁻¹.

B3: Gm F3-V340A: soybean EPSPS variant Gm F3 with V340A, SEQ ID NO: 14 (protein)
chain: MAAAEKPSTSPEIVLEPIKDFSGTITLPGSKSLSNRILLLAALSEGTTVVDNLLYSEDIHYMLGALRTLGLRVEDDKTTKQAIVEGCGGLFPTSKESKDEINLFCGNAATAMRPLTAAVVAAGGNASYVLDGVPRMRERPIGDLVAGLKQLGADVDCFLGTNCPPVRVNGKGGLPGGKVKLSGSVSSQYLTALLMAAPLALGDVEIEIVDKLISVPYVEMTLKLMERFGVSVEHSGNWDRFLVHGGQKYKSPGNAFVEGDASSASYLLAGAAITGGTITVNGCGTSSLQGDVKFAEVLEKMGAKVTWSENSVTVSGPPRDFSGRKVLRGIDVNMNKMPDAAMTLAVVALFANGPTAIRDVASWRVKESERMIAICTELRKLGATVEEGPDYCVITPPEKLNVTAIDTYGDHRMAMAFSLAACGDVPVTIKDPGCTRKTFPDYFEVLERLTKH
modifications: Glycine max
In the case of B3, the “fitness (kcat gly) compared with Gm F3” value (soybean EPSPS) is reported as “significant fitness improvement”.

B4: Gm F3-02-A7: soybean EPSPS variant, SEQ ID NO: 15 (protein)
chain: MAAAEKPSTSPEIVLEPIKDFSGTITLPGSKSLSNRILLLAALSEGTTVVDNLLYSEDIHYMLGALRTLGLRVEDDKTTKQAIVEGCGGLFPTSKESKDEINLFCGNAATAMRPLTAAVVAAGGNASYVLDGVPRMRERPIGDLVAGLKQLGADVDCFLGTNCPPVRVNGKGGLPGGKVKLSGSVSSQYLTALLMAAPLALGDVEIEIVDKLISVPYVEMTLKLMERFGVSVEHSGNWDRFLVHGGQKYKSPGNAFVEGDASSASYLLAGAAITGGTITVNGCGTSSLQGDVKFAEVLEKMGAKVTWSENSVTVSGPPRDFSGRKVLRGIDVNMNKMPDAAMTLAVVALFANGPTAIRDVASWRVKESERMIAICTELRKLGATVEEGPDYCVITPPEKLNVTAIDTYGDHRMAMAFSLAACGDVPVTIKDPGCTRKTFPDYFEVLERLTKH
modifications: Glycine max
B4 showed a kcat gly (soybean EPSPS) of 1.34 s⁻¹.

B5: Os D2: rice EPSPS ortholog of Zm D2, SEQ ID NO: 16 (protein, listed as Oryza sativa)
chain: MRKWEEIVLQPIREISGAVQLPGSKSLSNRILLLSALSEGTTVVDNLLNSEDVHYMLEALKALGLSVEHDKVAKRAVVVGCGGRFPVEKDAKGEVQLFCGNAATAMRPLTAAVTAAGGNATYVLDGVPRMRERPIGDLVVGLKQLGADVDCFLGTECPPVRVKGIGGLPGGKVKLSGSISSQYLSALLMAAPLALGDVEIEIIDKLISLPYVEMTLRLMERFGVKAEHSDSWDRFYIKGGQKYESPGNAYVEGDASSASYFLAGAAITGGTVTVQGCGTTSLQGDVKFAEVLEMMGAKVTWTDTSVTVTGPPREPYGKKHLKAVDVNMNKMPDAAMTLAVVALFADGPTAIRDVASWRVKETERMVAIRTELTKLGASVEEGPDYCIITPPPKLNITAIDTYGDHRMAMAFSLAACADVPVTIRDPGCTRKTFPNYFDVLSTFVRN
B5 showed a kcat gly (rice EPSPS) of 1.48 s⁻¹.
